According to the DeepSol protein solubility set:

Experiment: soluble on expression in E. coli; label from the status in PepcDB or PDB records

Question: With “MQDKCMMRPLSNPLTEAYNVQNLYQCLNCDDYHLCNGSLNCDPLVDREGIVCTVTGKYIQCNVRELEHHHHHH” as the sequence, how does the “soluble on expression in E. coli” value read?
Answer: The value was “not soluble”.

Question: For “MQDNSTKYLLYIQTATSNHLETNCVFLHCDYILKVPINKLVSYYAKLHLSSQSVLIETAKNILNINKLVPIYINPKTILFPLKHKRAPIQIYINAHYIVGMTAIENSTLIHFQEGIQLEVDEPFSLVSKKCHESLALKHFIENTISNLEHHHHHH”, which “soluble on expression in E. coli” value is on record?
Answer: Its value is “not soluble”.

Question: Which “soluble on expression in E. coli” value does the source give for “MQDRIFAFTPKGSLFQLPKGATPIDFAFAVHTNLGAQAVGAKINGRHVPLRTPLGNGDVVEIIKSRTSEPQLEHHHHHH” here?
Answer: The value was “not soluble”.

Question: For “MQDTDFFSWRRTMLLRFQRMEAAEEAYHEIELQAQQLEYDYYSLCVRHPVPFTRPKVAFYTNYPESWVSYYQAKNFLAIDPVLNPENFSQGHLMWNDDLFSEAQPLWEAAHAHGLRRGVTQYLMLPNRALGFLSFSRCSTREIPILSDELQLKMQLLVRESLMALMRLNDEIVMTPEMNFSKREKEILKWTAEGKTSAEIAMILSITG”, which “soluble on expression in E. coli” value is on record?
Answer: Its value is “not soluble”.

Question: Which “soluble on expression in E. coli” value does the source give for “MQDYTVHIVDDEEPVRKSLAFMLTMNGFAVKMHQSAEAFLAFAPDVRNGVLVTDLRMPDMSGVELLRNLGDLKINIPSIVITGHGDVPMAVEAMKAGAVDFIEKPFEDTVIIEAIERASEHLVALE” here?
Answer: The value was “soluble”.

Question: For “MQEEVNQKVISLSIQGVKITASVLKAALRKFLEMDNRRKQKATQVKMAEKTGRAQEKGREKARKKIEKKKPHGKQTIKQLNAQGVQLSNLKITDENVKSFDRVARKYGIDYSLKKEVGADPPKYLVFFKAKDVDVMTAAFREYAGVELKKKQVKKPSVRKKLQKSVERKAKNRQRVKQRQKSRGQER”, which “soluble on expression in E. coli” value is on record?
Answer: Its value is “not soluble”.

Question: Which “soluble on expression in E. coli” value does the source give for “MQEGLVVVESCPRLGWAMESPENGTRQTAYEIEIREAFTGRSVWNSGKVTSSQSQLVPTEGADICLNNPFNYSWRVRVWDETDTPSEWSQEAKFRLASDDLSSGKWIGAITRKDSHLPEGRKFHGGELKKPEVKAAWEAVDTLAKKSICLRRTFQTGEAKGKNANRKSGKKIVEATAYVCGLGFYEFSLNGKKIGDSEFAPLWSDYDKSVYYNTYDVTEQLQDGENVVGILLGNGFYNVQGGRYRKLQISFGPPTLLFELVINYEDGTRETIRSDHEWKYDLSPITFNCIYGGEDYDARREQKGWNQVGFNDSHWRPVVVQEAPKGVLRSQMAPPVKIMERYDIQKVTKLNSEQVMAASKSTKRTVDPSAVVLDMGQNLAGFPEITVRGKRGQKVTLIVAEALMDEGACNQRQTGRQHYYEYTLKGEGDEIWHPRFSYYGFRYIQVEGAVLKGQKNPQKLPVLKNIQSCFIYNSAKKVSTFESSNRIFNAAHRLIEKAVRSNMQSVFTDCPHREKLGWLEQVHLNGPGLLYNYDLTAYAPQIMQNMADAQHPNGAMPTTAPEYVVFEGPGMDAFAESPEWGGSLVIFPFMYYETYGDDSLIKKYYQHMRRYTDYLKTRADNGILSFGLGDWYDYGDFRAGFSRNTPVPLVATAHYYMTVMYLIKAARMVGNEFDVRYYSSLAYDIMVAFNKRFLDSNTAQYGTGSQASNALPIFLQMIQSTGDKGDYTPDASLAAKVLTNLIKDVESHGNRLTTGDVGNRYLIQTLARNGQHELIYKMFNHEEAPGYGFQLKFGATTLTEQWDPRQGSSWNHFMMGQIDEWFFNSLIGIRPSTTLSASVNEKDEPMQGYQKFVIAPKPVGDLKYVKSTYETLYGTILVDWTRQSGTFTLNVSVPVNTTAIVYLPGEKEPKEVQSGTYKFVAAE” here?
Answer: The value was “not soluble”.

Question: Which “soluble on expression in E. coli” value does the source give for “MQEYSVEVALVHPDDMVNLFGSNERHLKLIEENLGVVIHARTERVQILGETEEAIELARLTIKALLVLVGRGMIVNTSDVVTALSMAQNGNIDKFVALYEEEIIKDSYGKPIRVKTLGQKVYVDSVKSHDIVFGIGPAGTGKTFLAVTLAITALKRGQVKRIILTRPAVEAGESLGFLPGDLKEKVDPYLRPVYDALYQILGKEQTSRLMEREIIEIAPLAYMRGRTLDDAFVILDEAQNTTIMQMKMFLTRLGFNSKMIVNGDISQIDLPKNVKSGLVDASEKLKDIKQIDFVYLSAKDVVRHPVVAEIINAYEESTDVR” here?
Answer: The value was “not soluble”.

Question: Which “soluble on expression in E. coli” value does the source give for “MQEYTNHSDTTFALRNISFRVPGRTLLHPLSLTFPAGKVTGLIGHNGSGKSTLLKMLGRHQPPSEGEILLDAQPLESWSSKAFARKVAYLPQQLPPAEGMTVRELVAIGRYPWHGALGRFGAADREKVEEAISLVGLKPLAHRLVDSLSGGERQRAWIAMLVAQDSRCLLLDEPTSALDIAHQVDVLALVHRLSQERGLTVIAVLHDINMAARYCDYLVALRSGEMIAQGTPAEIMRGETLEMIYGIPMGILPHPAGAAPVSFVY” here?
Answer: The value was “not soluble”.

Question: For “MQFSTTPTLEGQSIVEYCGVVTGEAILGANIFRDFFAGIRDIVGGRSGAYEKELRKAREIAFQELGEQAKALGADAVVGIDIDYETVGKDGSMLMVSVSGTAVKTRR”, which “soluble on expression in E. coli” value is on record?
Answer: The value was “not soluble”.

Question: For “MQFYRRLTAIKAISFDLDDTLYNNRPIMQSVEQQMAHYFTEKFAILLPELLVEPKQVFNRRFWAPYRQQAIKAHQDISHDVVRLRFESYRLGLLAHNLSAEAARKEAQAGLDYFINLRSDFTVPKESHELLASLSKAFPLVSISNGNVDTRALGIDHYFQHIYHAGFQTGNCHDESEHLLKQKPETDMFSLVCQQLDILPEQLLHVGDCGFADIHGALNAGCQTAWLPQYGVGKSLQQIPHIELSLVSDLSQLIRKA”, which “soluble on expression in E. coli” value is on record?
Answer: The value was “not soluble”.

Question: With “MQGVPSNEPMLGQLTDNGRAAEAGLKEGDYIQSINGEKMRSWTDIVSAVKENPEKEMDVAVKRDNKTLHISVTPEAVKDENKKTIGRFGSYAPTEKGVLSAVAYGATSTVDVTKAILTNLSKLVTGQFKLDMLSGPVGIYDMTDQVAKTGI” as the sequence, how does the “soluble on expression in E. coli” value read?
Answer: The value was “not soluble”.

Question: Which “soluble on expression in E. coli” value does the source give for “MQGVQEQIEELQTKLAFQELTVEELNQEVIKLNQLVAHQQHQIQLLIGKLQAIEPSNMATQAEETPPPHY” here?
Answer: Its value is “soluble”.

Question: Which “soluble on expression in E. coli” value does the source give for “MQIDFNSDMGESFGAWTIGDGVDTELMAFISSANIATGFHAGDPSTMRRTIEQAKRLGVAIGAHPGFRDLVGFGRRHINAPAQELVDDMLYQLGALRELARVQGVPLQHFKPHGALYMHLARDEEAARLLVENLQRLEPDLLLYCMPGSVICNVAQELGQPVVREFYADRAYDLSGSIVFTRNVRAHDPAEVAARVIRACQQGLVRTVEGDDLAIQFDSICLHSDTPGALALAQATRQALDGAGIEVRTPRLEHHHHHH” here?
Answer: The value was “not soluble”.

Question: For “MQIGAKIRQLRIANQMTQEELADRAELSKGFISQIENDLTSPSINTLVDILQCLGTDLKTFFSDSEDKQIVFREKDYFSKTDNELKNTIEWVVPNSQKNAMEPIRMTLQPGGRSLEDHPHEGEEFGYVVKGSIEVHIGNECYRVNEGESFYFESTRKHYIVNVGESDAQVIWVSTPPTF”, which “soluble on expression in E. coli” value is on record?
Answer: Its value is “not soluble”.

Question: With “MQKIALCITGASGVIYGIKLLQVLEELDFSVDLVISRNAKVVLKEEHSLTFEEVLKGLKNVRIHEENDFTSPLASGSRLVHYRGVYVVPCSTNTLSCIANGINKNLIHRVGEVALKERVPLVLLVREAPYNEIHLENMLKITRMGGVVVPASPAFYHKPQSIDDMINFVVGKLLDVLRIEHNLYKRWRG” as the sequence, how does the “soluble on expression in E. coli” value read?
Answer: Its value is “soluble”.

Question: With “MQLFDLPLDQLQTYKPEKTAPKDFSEFWKLSLEELAKVQAEPDLQPVDYPADGVKVYRLTYKSFGNARITGWYAVPDKEGPHPAIVKYHGYNASYDGEIHEMVNWALHGYATFGMLVRGQQSSEDTSISPHGHALGWMTKGILDKDTYYYRGVYLDAVRALEVISSFDEVDETRIGVTGGSQGGGLTIAAAALSDIPKAAVADYPYLSNFERAIDVALEEPYLEINSFFRRNGSPETEVQAMKTLSYFDIMNLAYRVKVPVLMSIGLIDKVTPPSTVFAAYNHLETKKELKVYRYFGHEYIPAFQTEKLAFFKQHLKG” as the sequence, how does the “soluble on expression in E. coli” value read?
Answer: Its value is “soluble”.

Question: For “MQLQLICEDPSQQSHLDELAARWQLSHTDESDFALVLTAERLELRKVDEPKLGAIFVDLIGGAVGHRRKFGGGKGQAIAKAAGLNKGATPTVLDGTAGLGRDAFVLASLGCKVQMVERHPVVAALLDDGLARAKQDPEIGTWVSERMSLIHASSHDALDQLAQDREFVKPDVVYLDPMYPHPENKKKSALVKKEMRVFQSLVGADLDADGLLEPALALATKRVVVKRPDYANWLNEQKPSMAIETKKNRFDVYVKASMALEHHHHHH”, which “soluble on expression in E. coli” value is on record?
Answer: Its value is “soluble”.

Question: For “MQMESQRRDVFYVSDGTAITCETLGHVVLGQFAVQPNEKTFPFVESDEKLSELLKQIQRSYQLHGVKPLVFFSMVIPEMRTRLLQAPAHFYDVLESIVQRVSLDIEMEPAPKLQRSRSVGKDSDTYFDRIAAIEYTLAHDDGVSLKDLDRADIILLGVSRSGKTPTSLYMAMQFGLRVVNYPFIAEDMHAMRLLPEFEFHRHKLFGLTINAERLTEIRENRLAGSEYASNQQCQQELATVEALFRREAISYINTSSLSVEEISTRILERTGLKRRLF”, which “soluble on expression in E. coli” value is on record?
Answer: Its value is “not soluble”.

Question: For “MQMNHPIYIASDHTGLELKSLVIKHLEQQKLQVIDLGPTELDPLDDYPDYAFLLAQTMQANPNSLGILICGTGVGVCMAANKAKGILAALVVDSKTAALARQHDDANVLCLSSRFVVPEENIKIVDEFLQAQFEGGRHSKRVGKIIAYEREK”, which “soluble on expression in E. coli” value is on record?
Answer: The value was “soluble”.

Question: Which “soluble on expression in E. coli” value does the source give for “MQMNTQREQLIHIWLTSVLNSDEFKIQFLAGDASFRRYARVEYKNNTYMLMDAPPEKEDCVPFVHIDEFFDRHGVRVPHILAKDLVQGFLLLEDFGDVLLSTLLNAQTVNHYYLQAFAQLIHLQSIDGQDQFPAYTFEKLMAEMHLLTEWMLPSLDIQPSSAEQDIIQQTFELLANTALNQPQVIVHRDFHSRNLMKIQGEEELGVIDFQDAVIGADTYDLISITRDAYVQWGEDQVITWFEMFYDLLPDTSKHHRDFEQFKRDADFMAIQRHIKILGIFVRLFERDGKSSYLKDLPRVMWYLLQESRPYAELKPFVEFIQYQVMPKFEQKYGGYEVVKK” here?
Answer: The value was “not soluble”.

Question: With “MQNDAGQTVELYVPRKCSSSNRIIGPKDHASVQIDFVDVDPETGRMIPGKSTRYAICGAIRRMGESDDAILRLAQKDGLVPRDDVKSN” as the sequence, how does the “soluble on expression in E. coli” value read?
Answer: Its value is “not soluble”.

Question: For “MQNEKTLRKIKKLLALSKSSNPHEAAKALEMAQKLMQENRINQVEIEFSQYHGKQKTAKKSARYVHQLVGVITRAFGVDAYMSNFYPDKDEAEEKMHVVFYGAEGRPEIASYCFDVLYRQLQTARKEFLATQSKRLKRSTLISRGDEFCQGWVFGVHENVKEFAMTPEEKGKLERYRYNGFKDLQTAKVRDAGETRDYGLALSQGYKQGSKVTLNHGVNGKETTKLGGDEMKENNGWIACNLGSA”, which “soluble on expression in E. coli” value is on record?
Answer: Its value is “not soluble”.
